Results reported in patent US20200216522A1 (DENALI THERAPEUTICS, published 2020).

T1: Peptide_012 (human)
T1 peptide: SEEPGSETSDAKSTP

T2: Peptide_011 (human)
T2 peptide: PTEDGSEEPGSETSD

T3: Peptide_005 (human)
T3 peptide: GDRKDQGGYTMHQDQ

T4: Peptide_004 (human)
T4 peptide: GTYGLGDRKDQGGYT

T5: Peptide_002 (human)
T5 peptide: QEFEVMEDHAGTYGL

T6: Peptide_024 (human)
T6 peptide: DEAAGHVTQARMVSK

T7: Peptide_021 (human)
T7 peptide: TTAEEAGIGDTPSLE

T8: Peptide_020 (human)
T8 peptide: EIPEGTTAEEAGIGD

T9: Peptide_015 (human)
T9 peptide: TAEDVTAPLVDEGAP

T10: Peptide_014 (human)
T10 peptide: AKSTPTAEDVTAPLV

T11: Peptide_036 (human)
T11 peptide: PPAPKTPPSSGEPPK

T12: Peptide_034 (human)
T12 peptide: ANATRIPAKTPPAPK

T13: Peptide_033 (human)
T13 peptide: GQKGQANATRIPAKT

T14: Peptide_032 (human)
T14 peptide: GAAPPGQKGQANATR

T15: Peptide_028 (human)
T15 peptide: GSDDKKAKGADGKTK

T16: Peptide_027 (human)
T16 peptide: SKDGTGSDDKKAKGA

T17: process-control peptide
T17 construct: array control, not a Tau peptide
T17 peptide: GGSGGGSDYKDDDDK

T18: Peptide_047 (human)
T18 peptide: TPPKSPSSAKSRLQT

T19: Peptide_042 (human)
T19 peptide: PGSRSRTPSLPTPPT

T20: Peptide_040 (human)
T20 peptide: GYSSPGSPGTPGSRS

T21: Peptide_039 (human)
T21 peptide: SGDRSGYSSPGSPGT

T22: Peptide_037 (human)
T22 peptide: TPPSSGEPPKSGDRS

T23: Peptide_056 (human)
T23 peptide: QIINKKLDLSNVQSK

T24: Peptide_054 (human)
T24 peptide: LKHQPGGGKVQIINK

T25: Peptide_053 (human)
T25 peptide: GSTENLKHQPGGGKV

T26: Peptide_052 (human)
T26 peptide: VKSKIGSTENLKHQP

T27: Peptide_067 (human)
T27 peptide: KPGGGQVEVKSEKLD

T28: Peptide_064 (human)
T28 peptide: SKVTSKCGSLGNIHH

T29: Peptide_063 (human)
T29 peptide: KPVDLSKVTSKCGSL

T30: Peptide_062 (human)
T30 peptide: VQIVYKPVDLSKVTS

T31: Peptide_061 (human)
T31 peptide: PGGGSVQIVYKPVDL

T32: Peptide_077 (human)
T32 peptide: NAKAKTDHGAEIVYK

T33: Peptide_071 (human)
T33 peptide: QSKIGSLDNITHVPG

T34: Peptide_087 (human)
T34 peptide: TLADEVSASLAKQGL

T35: Peptide_085 (human)
T35 peptide: DSPQLATLADEVSAS

B1: murine anti-Tau hybridoma antibody 17G2.A1 (antibody, V domains shown)
VH: QVQLQQPGAELVGPGSSVKLSCKASGYTFINYWIDWMKQSPGQGLEWIGNIYPSDSESHYNQKFTDKATLTVDISSSTAYLQLSSLTSEDSAVYYCALYSKGYWGQGTSVTVSS
VL: DVLMTQTPLSLPVTLGDQASISCRSSQNIVHTNGNTYLEWYLQKPGQSPKLLIYKLSSRFSGVPDRFSGSGSGTDFTLKISRVEAEDLGVYYCFQGSHLPFTFGGGTKLEIKR
notes: mouse IgG from hybridoma; also called anti-Tau 17G2.A1
B2: chimeric IgG clone 1D10 (antibody, V domains shown)
VH: EVQLQQSGAELVRPGASVKLSCTASGFNIKDSLMHWMKQRPEQGLEWIGWIDPEDGETKYAPKFQDKATLTADTSSNAAYLQLSSLTSEDTAIYYCVRGDWDGGYWGQGTTLTVSS
VL: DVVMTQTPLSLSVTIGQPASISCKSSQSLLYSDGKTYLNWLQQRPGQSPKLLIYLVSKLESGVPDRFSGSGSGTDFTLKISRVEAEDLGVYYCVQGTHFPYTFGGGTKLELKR
notes: mouse-human chimeric IgG from HEK293

Tests used:
Experiment in all cases: peptide array
Peptide_012 = molecular target: T1, Peptide_012
In short: (§1)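 Overlapping 15-mer peptides (5-aa offset) spanning human 2N4R Tau spotted in triplicate on slides; antibodies bound 2 h at room temperature in 3% BSA-TBST (chimeric IgG 5 μg/mL; mouse IgG 30 μg/mL). Detection 1 h with fluorescent anti-human (568 nm) or anti-mouse (647 nm) secondary; fluorescence imaging aligned to array map.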

Peptide_011 = molecular target: T2, Peptide_011
In short: as §1

Peptide_005 = molecular target: T3, Peptide_005
In short: as §1

Peptide_004 = molecular target: T4, Peptide_004
In short: as §1

Peptide_002 = molecular target: T5, Peptide_002
In short: as §1

Peptide_024 = molecular target: T6, Peptide_024
In short: as §1

Peptide_021 = molecular target: T7, Peptide_021
In short: as §1

Peptide_020 = molecular target: T8, Peptide_020
In short: as §1

Peptide_015 = molecular target: T9, Peptide_015
In short: as §1

Peptide_014 = molecular target: T10, Peptide_014
In short: as §1

Peptide_036 = molecular target: T11, Peptide_036
In short: as §1

Peptide_034 = molecular target: T12, Peptide_034
In short: as §1

Peptide_033 = molecular target: T13, Peptide_033
In short: as §1

Peptide_032 = molecular target: T14, Peptide_032
In short: as §1

Peptide_028 = molecular target: T15, Peptide_028
In short: as §1

Peptide_027 = molecular target: T16, Peptide_027
In short: as §1

process-control peptide = molecular target: T17, process-control peptide
In short: as §1

Peptide_047 = molecular target: T18, Peptide_047
In short: as §1

Peptide_042 = molecular target: T19, Peptide_042
In short: as §1

Peptide_040 = molecular target: T20, Peptide_040
In short: as §1

Peptide_039 = molecular target: T21, Peptide_039
In short: as §1

Peptide_037 = molecular target: T22, Peptide_037
In short: as §1

Peptide_056 = molecular target: T23, Peptide_056
In short: as §1

Peptide_054 = molecular target: T24, Peptide_054
In short: as §1

Peptide_053 = molecular target: T25, Peptide_053
In short: as §1

Peptide_052 = molecular target: T26, Peptide_052
In short: as §1

Peptide_067 = molecular target: T27, Peptide_067
In short: as §1

Peptide_064 = molecular target: T28, Peptide_064
In short: as §1

Peptide_063 = molecular target: T29, Peptide_063
In short: as §1

Peptide_062 = molecular target: T30, Peptide_062
In short: as §1

Peptide_061 = molecular target: T31, Peptide_061
In short: as §1

Peptide_077 = molecular target: T32, Peptide_077
In short: as §1

Peptide_071 = molecular target: T33, Peptide_071
In short: as §1

Peptide_087 = molecular target: T34, Peptide_087
In short: as §1

Peptide_085 = molecular target: T35, Peptide_085
In short: as §1

Binder	binding result (Peptide_012)	binding result (Peptide_011)	binding result (Peptide_005)	binding result (Peptide_004)	binding result (Peptide_002)	binding result (Peptide_024)	binding result (Peptide_021)	binding result (Peptide_020)	binding result (Peptide_015)	binding result (Peptide_014)	binding result (Peptide_036)	binding result (Peptide_034)	binding result (Peptide_033)	binding result (Peptide_032)	binding result (Peptide_028)	binding result (Peptide_027)	binding result (process-control peptide)	binding result (Peptide_047)	binding result (Peptide_042)	binding result (Peptide_040)	further results
B1	no binding (tested: 30 ug/mL)	no binding (tested: 30 ug/mL)	no binding (tested: 30 ug/mL)	no binding (tested: 30 ug/mL)	no binding (tested: 30 ug/mL)	no binding (tested: 30 ug/mL)	no binding (tested: 30 ug/mL)	no binding (tested: 30 ug/mL)	no binding (tested: 30 ug/mL)	no binding (tested: 30 ug/mL)	no binding (tested: 30 ug/mL)	no binding (tested: 30 ug/mL)	no binding (tested: 30 ug/mL)	no binding (tested: 30 ug/mL)	no binding (tested: 30 ug/mL)	no binding (tested: 30 ug/mL)	no binding (tested: 30 ug/mL)	no binding (tested: 30 ug/mL)	no binding (tested: 30 ug/mL)	no binding (tested: 30 ug/mL)	binding result (Peptide_039): binds; binding result (Peptide_037): no binding (tested: 30 ug/mL); binding result (Peptide_056): no binding (tested: 30 ug/mL); binding result (Peptide_054): no binding (tested: 30 ug/mL); binding result (Peptide_053): no binding (tested: 30 ug/mL); binding result (Peptide_052): no binding (tested: 30 ug/mL); binding result (Peptide_067): no binding (tested: 30 ug/mL); binding result (Peptide_064): no binding (tested: 30 ug/mL); binding result (Peptide_063): no binding (tested: 30 ug/mL); binding result (Peptide_062): no binding (tested: 30 ug/mL); binding result (Peptide_061): no binding (tested: 30 ug/mL); binding result (Peptide_077): no binding (tested: 30 ug/mL); binding result (Peptide_071): no binding (tested: 30 ug/mL); binding result (Peptide_087): no binding (tested: 30 ug/mL); binding result (Peptide_085): no binding (tested: 30 ug/mL)
B2	no binding (tested: 5 ug/mL)	no binding (tested: 5 ug/mL)	no binding (tested: 5 ug/mL)	no binding (tested: 5 ug/mL)	no binding (tested: 5 ug/mL)	no binding (tested: 5 ug/mL)	no binding (tested: 5 ug/mL)	no binding (tested: 5 ug/mL)	no binding (tested: 5 ug/mL)	no binding (tested: 5 ug/mL)	no binding (tested: 5 ug/mL)	no binding (tested: 5 ug/mL)	no binding (tested: 5 ug/mL)	no binding (tested: 5 ug/mL)	no binding (tested: 5 ug/mL)	no binding (tested: 5 ug/mL)	no binding (tested: 5 ug/mL)	no binding (tested: 5 ug/mL)	no binding (tested: 5 ug/mL)	no binding (tested: 5 ug/mL)	binding result (Peptide_039): no binding (tested: 5 ug/mL); binding result (Peptide_037): no binding (tested: 5 ug/mL); binding result (Peptide_056): no binding (tested: 5 ug/mL); binding result (Peptide_054): no binding (tested: 5 ug/mL); binding result (Peptide_053): no binding (tested: 5 ug/mL); binding result (Peptide_052): binds; binding result (Peptide_067): no binding (tested: 5 ug/mL); binding result (Peptide_064): no binding (tested: 5 ug/mL); binding result (Peptide_063): no binding (tested: 5 ug/mL); binding result (Peptide_062): no binding (tested: 5 ug/mL); binding result (Peptide_061): no binding (tested: 5 ug/mL); binding result (Peptide_077): no binding (tested: 5 ug/mL); binding result (Peptide_071): no binding (tested: 5 ug/mL); binding result (Peptide_087): no binding (tested: 5 ug/mL); binding result (Peptide_085): no binding (tested: 5 ug/mL)
